Assay results reported in PMC9249326 (2022).

How the values were obtained:
[1] = target: T1, 6xHis-tagged human NGF (nerve growth factor) (human, UniProt P01138 19-241); experiment: BLI
[2] = target: T1, 6xHis-tagged human NGF (nerve growth …); experiment: BLI; remark: listed apart in the source

T1 sequence (P01138 122-241): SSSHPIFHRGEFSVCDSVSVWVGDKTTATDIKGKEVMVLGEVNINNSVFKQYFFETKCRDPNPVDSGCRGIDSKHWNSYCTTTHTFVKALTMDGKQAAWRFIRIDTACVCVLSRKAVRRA

B1: tanezumab (antibody, V domains shown)
VH: QVQLQESGPGLVKPSETLSLTCTVSGFSLIGYDLNWIRQPPGKGLEWIGIIWGDGTTDYNSAVKSRVTISKDTSKNQFSLKLSSVTAADTAVYYCARGGYWYATSYYFDYWGQGTLVTVSS
VL: DIQMTQSPSSLSASVGDRVTITCRASQSISNNLNWYQQKPGKAPKLLIYYTSRFHSGVPSRFSGSGSGTDFTFTISSLQPEDIATYYCQQEHTLPYTFGQGTKLEIK
**Q.** Which results are given for B1?
**A.** Kd [1]: < 1 pM; koff [2]: < 1e-07 s⁻¹
